What follows are sequences tested on Escherichia coli TOP10 (assay: shrunken log2 fold change of peptide-encoding DNA abundance (4.5 h post-induction vs induction); higher = less antimicrobial activity (less host growth inhibition)). Settings: time post-induction: 4.5 h; library: site-saturation at positions 5, 18, 19, 20.
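Further: peptides expressed intracellularly from a pBAD plasmid library in pooled LB shake-flask culture, induced with 0.3% L-arabinose, DNA abundance read by NGS, three biological replicates, DESeq2 with apeglm shrinkage.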

Sequence	shrunken log2 fold change
RRIRGRPPRLPRPRPRPLRNPRP	1.03
RRIRVRPPRLPRPRPRPCYEPRP	-0.246
RRIRGRPPRLPRPRPRPQMDPRP	0.291
RRIRLRPPRLPRPRPRPRNNPRP	0.019
RRIRYRPPRLPRPRPRPDLVPRP	-0.0421
RRIRYRPPRLPRPRPRPYNDPRP	-0.0979
RRIRQRPPRLPRPRPRPDNEPRP	-0.359
RRIRMRPPRLPRPRPRPRFWPRP	0.522
RRIRQRPPRLPRPRPRPYRWPRP	-0.0412
RRIRPRPPRLPRPRPRPLPHPRP	-0.206
RRIRERPPRLPRPRPRPGQAPRP	-0.00166
RRIRRRPPRLPRPRPRPIEKPRP	0.149
RRIRDRPPRLPRPRPRPNRLPRP	0.0873
RRIRSRPPRLPRPRPRPIRDPRP	0.156
RRIRARPPRLPRPRPRPHFPPRP	0.0382
RRIRERPPRLPRPRPRPAFKPRP	0.106
RRIRYRPPRLPRPRPRPENTPRP	-0.879
RRIRVRPPRLPRPRPRPLTEPRP	-0.503
RRIRYRPPRLPRPRPRPTCQPRP	-0.0443
RRIRPRPPRLPRPRPRPRLFPRP	1.92
RRIRKRPPRLPRPRPRPHGQPRP	-0.0371
RRIRVRPPRLPRPRPRPHTNPRP	-0.471

Sequence	shrunken log2 fold change
RRIRDRPPRLPRPRPRPSCGPRP	0.301
RRIRYRPPRLPRPRPRPRMKPRP	-0.241
RRIRRRPPRLPRPRPRPRGDPRP	0.393
RRIRGRPPRLPRPRPRPDMLPRP	0.526
RRIRYRPPRLPRPRPRPASDPRP	-0.348
RRIRRRPPRLPRPRPRPSDKPRP	-0.492
RRIRLRPPRLPRPRPRPPSMPRP	-0.127
RRIRHRPPRLPRPRPRPPPQPRP	0.844
RRIRQRPPRLPRPRPRPKDHPRP	-0.185
RRIRARPPRLPRPRPRPNMKPRP	-0.348
RRIRKRPPRLPRPRPRPRLTPRP	0.501
RRIRRRPPRLPRPRPRPVRPPRP	0.512
RRIRQRPPRLPRPRPRPGGRPRP	0.456
RRIRWRPPRLPRPRPRPWFIPRP	-0.436
RRIRMRPPRLPRPRPRPWQVPRP	-0.0506
RRIRPRPPRLPRPRPRPPCCPRP	-0.0155
RRIRSRPPRLPRPRPRPYQWPRP	0.0794
RRIRMRPPRLPRPRPRPMSLPRP	-0.207
RRIRFRPPRLPRPRPRPECIPRP	-0.04
RRIRCRPPRLPRPRPRPMPYPRP	-0.189
RRIRQRPPRLPRPRPRPKTNPRP	-0.117
RRIRTRPPRLPRPRPRPHIWPRP	-0.103

Sequence	shrunken log2 fold change
RRIRARPPRLPRPRPRPAKCPRP	-6.11e-05
RRIRGRPPRLPRPRPRPGGPPRP	0.968
RRIRMRPPRLPRPRPRPCKRPRP	0.00656
RRIRTRPPRLPRPRPRPAENPRP	0.0214
RRIRPRPPRLPRPRPRPPFFPRP	0.415
RRIRKRPPRLPRPRPRPFYMPRP	-0.117
RRIRHRPPRLPRPRPRPSTDPRP	-0.406
RRIRDRPPRLPRPRPRPCTFPRP	-0.0767
RRIRSRPPRLPRPRPRPVWKPRP	-0.1
RRIRNRPPRLPRPRPRPGWYPRP	-0.273
RRIRCRPPRLPRPRPRPEPMPRP	0.176
RRIRWRPPRLPRPRPRPEHCPRP	0.177
RRIRYRPPRLPRPRPRPSAKPRP	-0.117
RRIRQRPPRLPRPRPRPRTSPRP	0.131
RRIRARPPRLPRPRPRPCGNPRP	0.0115
RRIRQRPPRLPRPRPRPCAAPRP	0.339
RRIRKRPPRLPRPRPRPRCSPRP	0.305
RRIRARPPRLPRPRPRPIQMPRP	0.0579
RRIRYRPPRLPRPRPRPCHRPRP	-0.169
RRIRKRPPRLPRPRPRPSWSPRP	-0.075
RRIRARPPRLPRPRPRPVEYPRP	0.0729
RRIRTRPPRLPRPRPRPYEFPRP	-0.202

Sequence	shrunken log2 fold change
RRIRFRPPRLPRPRPRPCGSPRP	0.06
RRIRYRPPRLPRPRPRPTQWPRP	0.413
RRIRKRPPRLPRPRPRPMQAPRP	1.15
RRIRPRPPRLPRPRPRPVHTPRP	-0.036
RRIRERPPRLPRPRPRPTRSPRP	-0.196
RRIRDRPPRLPRPRPRPGCQPRP	0.341
RRIRIRPPRLPRPRPRPYKYPRP	-0.89
RRIRMRPPRLPRPRPRPNRSPRP	-0.0367
RRIRFRPPRLPRPRPRPIKMPRP	-0.243
RRIRERPPRLPRPRPRPEHTPRP	-0.154
RRIRKRPPRLPRPRPRPSERPRP	0.317
RRIRKRPPRLPRPRPRPCCFPRP	0.112
RRIRMRPPRLPRPRPRPHCIPRP	-0.0281
RRIRGRPPRLPRPRPRPQLQPRP	0.577
RRIRQRPPRLPRPRPRPKTQPRP	0.121
RRIRYRPPRLPRPRPRPQHPPRP	-0.595
RRIRRRPPRLPRPRPRPTQNPRP	1.03
RRIRTRPPRLPRPRPRPVVGPRP	0.626
RRIRCRPPRLPRPRPRPPAPPRP	1.11
RRIRQRPPRLPRPRPRPRNSPRP	-0.0108
RRIRQRPPRLPRPRPRPKPDPRP	0.313
RRIRVRPPRLPRPRPRPAETPRP	0.344

Sequence	shrunken log2 fold change
RRIRPRPPRLPRPRPRPNIIPRP	-0.407
RRIRPRPPRLPRPRPRPPQMPRP	0.531
RRIRVRPPRLPRPRPRPIKWPRP	-0.161
RRIRIRPPRLPRPRPRPALCPRP	0.0482
RRIRYRPPRLPRPRPRPSKDPRP	-0.642
RRIRARPPRLPRPRPRPDYYPRP	-0.135
RRIRERPPRLPRPRPRPAIQPRP	-0.337
RRIRRRPPRLPRPRPRPKQDPRP	0.38
RRIRWRPPRLPRPRPRPMIWPRP	0.0116
RRIRARPPRLPRPRPRPNQVPRP	-0.0439
RRIRWRPPRLPRPRPRPPCNPRP	0.0762
RRIRPRPPRLPRPRPRPVMAPRP	-0.128
RRIRDRPPRLPRPRPRPEDTPRP	0.509
RRIRIRPPRLPRPRPRPHLDPRP	0.178
RRIRSRPPRLPRPRPRPFWKPRP	-0.125
RRIRKRPPRLPRPRPRPKWWPRP	0.238
RRIRARPPRLPRPRPRPLCMPRP	-0.125
RRIRNRPPRLPRPRPRPLKSPRP	-0.258
RRIRCRPPRLPRPRPRPDWRPRP	0.243
RRIRGRPPRLPRPRPRPWQLPRP	0.372
RRIRMRPPRLPRPRPRPEPNPRP	2.18

Reference: the supplement of paper PMC9112550, “Optimization of the antimicrobial peptide Bac7 by deep mutational scanning” (BMC Biology, 2022)
